Reference: article PMC5292422, “NBS-LRR Protein Pik-H4 Interacts with OsBIHD1 to Balance Rice Blast Resistance and Growth by Coordinating Ethylene-Brassinosteroid Pathway”

Target: T1, OsBIHD1 207-527 (HD domain) (Oryza sativa (rice; Pik-H4 NIL?), UniProt Q6QUW0 207-527)
T1 sequence: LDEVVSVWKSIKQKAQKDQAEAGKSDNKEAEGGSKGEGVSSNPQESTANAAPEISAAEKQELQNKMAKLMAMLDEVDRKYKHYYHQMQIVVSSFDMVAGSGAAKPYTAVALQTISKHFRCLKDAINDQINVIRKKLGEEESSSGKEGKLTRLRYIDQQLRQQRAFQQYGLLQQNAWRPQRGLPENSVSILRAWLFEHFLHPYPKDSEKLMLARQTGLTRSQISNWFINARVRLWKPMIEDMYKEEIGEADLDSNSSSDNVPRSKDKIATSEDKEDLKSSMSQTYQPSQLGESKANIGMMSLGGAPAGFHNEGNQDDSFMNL
Assay: EMSA; EMSA: 25 C, 30 min, binding buffer of Beyotime Chemiluminescent EMSA Kit GS009 (composition, salt and pH not stated); 10% polyacrylamide gel, 0.5x TBE
Conditions: protein: recombinant; tags: His (pET28a); label: biotin 3'

B1: CYP734A2 promoter TGTCA probe (dsDNA)
DNA 1: TGCATTGTCAGTTAC
DNA 2: GTAACTGACAATGCA
- binding result: binds

B2: OsACO3 promoter TGTCA probe (dsDNA)
DNA 1: AAATTCTGTCATCATCA
DNA 2: TGATGATGACAGAATTT
- binding result: binds
